1 substance from PMC3285605 can be followed below.

For test [1], the target named is soluble form of vesicular stomatitis virus (VSV) glycoprotein G ectodomain (Gth, aa residues 1–422) (vesicular stomatitis virus (Mudd-Summer strain, Indiana serotype)). Kind of test: AUC.
Test [2] shares this target. Kind of test: AUC; sedimentation velocity, pH 6.7, Gth at 0.4 mg/ml, 45,000 rpm, 15°C.
The target is the same in test [3]. Kind of test: AUC; sedimentation velocity, pH 6.7, Gth at 1.6 mg/ml, 45,000 rpm, 15°C.

Consider “soluble form of vesicular stomatitis virus (VSV) glycoprotein G ectodomain (Gth, aa residues 1–422) (domain or fragment)”, for which, in test [1], the fraction of the species of about 320 kDa at pH 6.0 was 30%; the fraction of the species of about 1,600 kDa at pH 6.0 was found to be 70%; the fractional concentration of the 10.0 S species at 0.4 mg/ml, pH 5.7 worked out at 71%; the fractional concentration of the 10.0 S species at 1.6 mg/ml, pH 5.7 is 55%. Moreover, in test [1], the fractional concentration of the 21.0 S species at 0.4 mg/ml, pH 5.7 amounted to 29% and the fractional concentration of the 21.0 S species at 1.6 mg/ml, pH 5.7 worked out at 45%. The substance further gave a fractional concentration of the 21.0 S species at 0.4 mg/ml, pH 6.7 in test [2] of 13%. In test [3], this substance registered a fractional concentration of the 10.0 S species at 1.6 mg/ml, pH 6.7 of 40% and a fractional concentration of the 21.0 S species at 1.6 mg/ml, pH 6.7 of 24%.
